Test results published in patent US20140212458A1.
pKd: −log10 of the molar value. Several values for one entry are separate records, joined by “and”; a condition that tells them apart may be missing. Equal entries are not always repeated.

Tests used:
[1] = biological target: BG505 SOSIP.664-D7324 gp140 trimer (HIV-1 BG505 (clade A)); experiment: D7324-capture ELISA, average of 2-6 titrations
[2] = biological target: BG505 SOSIP.664 gp140 trimer (HIV-1 BG505 (clade A)); experiment: negative stain EM, 2D class averages; Fab 240 nM, trimer 14 nM
[3] = biological target: BG505 SOSIP.664-D7324 gp140 trimer (HIV-1 BG505 (clade A)); experiment: D7324-capture ELISA (panel B)
[4] = biological target: BG505 SOSIP.664 gp140 trimer (HIV-1 BG505 (clade A)); experiment: ITC, antibody titrated into trimer
[5] = biological target: BG505 SOSIP.664 gp140 trimer (HIV-1 BG505 (clade A)); experiment: negative stain EM, 2D class averages; Fab 480 nM, trimer 44 nM
[6] = biological target: BG505 SOSIP.664 gp140 trimer (HIV-1 BG505 (clade A)); experiment: negative stain EM (not shown)
[7] = biological target: BG505 gp120-D7324 monomer in the presence of sCD4 (HIV-1 BG505 (clade A)); experiment: D7324-capture ELISA with sCD4 (panel B)
[8] = biological target: BG505 SOSIP.664 gp140 trimer (HIV-1 BG505 (clade A)); experiment: negative stain EM, 2D class averages; Fab 860 nM, trimer 48 nM
[9] = biological target: BG505 SOSIP.664 gp140 trimer (HIV-1 BG505 (clade A)); experiment: ITC
[10] = biological target: BG505 SOSIP.664 gp140 trimer (HIV-1 BG505 (clade A)); experiment: ITC; remark: listed apart in the source
[11] = biological target: BG505 SOSIP.664-D7324 gp140 trimer (HIV-1 BG505 (clade A)); experiment: D7324-capture ELISA (panel D)
[12] = biological target: recombinant HIV-1 envelope glycoprotein gp120 BG505 clade A (HIV-1 BG505 (clade A)); experiment: ELISA on BG505 gp120
[13] = biological target: BG505 SOSIP.664-His gp140 trimer (HIV-1 BG505 (clade A)); experiment: Ni-NTA-capture ELISA (panel C)
[14] = biological target: BG505 SOSIP.664 gp140 trimer (HIV-1 BG505 (clade A)); experiment: negative stain EM
[15] = biological target: BG505 SOSIP.664 gp140 trimer (HIV-1 BG505 (clade A)); experiment: negative stain EM, 2D class averages; Fab 600 nM, trimer 40 nM
[16] = biological target: BG505 gp120 monomer (HIV-1 BG505 (clade A)); experiment: ITC
[17] = biological target: BG505 SOSIP.664 gp140 trimer (HIV-1 BG505 (clade A)); experiment: ITC, Fab titrated into Env, 25 C
[18] = biological target: BG505 gp120 monomer (HIV-1 BG505 (clade A)); experiment: ITC, Fab titrated into Env, 25 C
[19] = biological target: BG505 SOSIP.664 gp140 trimer (HIV-1 BG505 (clade A)); experiment: SDS-PAGE of SEC fractions, ImageJ
[20] = biological target: BG505 SOSIP.664 gp140 trimer (HIV-1 BG505 (clade A)); experiment: ITC, Fab titrated into trimer; footnote f: data previously described elsewhere (Julien 2013, the applicants' own PG9:trimer study, also an example of this filing)
[21] = biological target: BG505 SOSIP.664 gp140 trimer (HIV-1 BG505 (clade A)); experiment: ITC, two-site model
[22] = biological target: BG505 SOSIP.664-His gp140 trimer (HIV-1 BG505 (clade A)); experiment: SPR, trimer on NTA chip, IgG 1,000 nM
[23] = biological target: BG505 gp120-D7324 monomer (HIV-1 BG505 (clade A)); experiment: D7324-capture ELISA (panel A)
[24] = biological target: BG505 SOSIP.664-D7324 gp140 trimer (HIV-1 BG505 (clade A)); experiment: D7324-capture ELISA (panel A)
[25] = biological target: JR-FL gp120 core with mini V3 (HIV-1 JR-FL); experiment: ITC
[26] = biological target: BG505 gp41ECTO-His (HIV-1 BG505 (clade A)); experiment: Ni-NTA-capture ELISA (panel C)

## F105 (antibody)
[1]
  EC50: > 10 mg/L

## 14e Fab
[2]
  % 1 Fab bound: 17%
  % 2 Fabs bound: 2%
  % 3 Fabs bound: 0%
  % trimer alone: 81%
  particles, 1 Fab bound: 4440 particles
  particles, 2 Fabs bound: 610 particles
  particles, 3 Fabs bound: 0 particles
  particles, trimer alone: 21900 particles

## CH103 (antibody)
[1]
  EC50: 0.792 mg/L

## PGV04 (antibody)
[1]
  EC50: 0.227 mg/L

## PGT121 (antibody)
[3]
  EC50 (read off the curve): 0.09 mg/L
[1]
  EC50: 0.095 mg/L

## PGT121 Fab
[4]
  -TΔS: 86.2 kJ/mol
  Kd: 151 nM and 7.55 µg/mL
  N (stoichiometry of binding): 2.4
  ΔG: -38.9 kJ/mol
  ΔH: -125 kJ/mol

## 3BNC117 (antibody)
[3]
  EC50 (read off the curve): 0.1 mg/L
[1]
  EC50: 0.102 mg/L

## PGT122 (antibody)
[1]
  EC50: 0.159 mg/L

## b6 Fab
[5]
  % 1 Fab bound: 6%
  % 2 Fabs bound: 0%
  % 3 Fabs bound: 0%
  % trimer alone: 94%
  particles, 1 Fab bound: 354 particles
  particles, 2 Fabs bound: 0 particles
  particles, 3 Fabs bound: 0 particles
  particles, trimer alone: 5610 particles

## PGT122 Fab
[6]
  % of images with no Fabs bound: < 3%
  % of images with three Fabs bound: > 50%

## PGT130 (antibody)
[1]
  EC50: 0.524 mg/L

## A32 (antibody)
[7]
  EC50 (read off the curve): 0.04 mg/L
[1]
  EC50: > 10 mg/L

## PGT126 (antibody)
[3]
  EC50 (read off the curve): 0.03 mg/L
[1]
  EC50: 0.026 mg/L

## PGT125 (antibody)
[3]
  EC50 (read off the curve): 0.04 mg/L
[1]
  EC50: 0.047 mg/L

## 45-46 (antibody)
[1]
  EC50: 0.127 mg/L

## 3BC315 (antibody)
[1]
  EC50: 0.962 mg/L

## F240 Fab
[8]
  % 1 Fab bound: 2%
  % 2 Fabs bound: 0%
  % 3 Fabs bound: 0%
  % trimer alone: 98%
  particles, 1 Fab bound: 154 particles
  particles, 2 Fabs bound: 0 particles
  particles, 3 Fabs bound: 0 particles
  particles, trimer alone: 6260 particles

## PGT127 Fab
[9]
  N (stoichiometry of binding): < 3
[10]
  pKd: 7.15

## VRC03 (antibody)
[3]
  EC50 (read off the curve): 0.6 mg/L
[1]
  EC50: 0.647 mg/L

## PGT145 (antibody)
[11]
  EC50 (read off the curve): 0.06 mg/L
[1]
  EC50: 0.114 mg/L

## PG16 (antibody)
[12]
  EC50 (read off the curve): 0.2 mg/L
[11]
  EC50 (read off the curve): 0.1 mg/L
[1]
  EC50: 0.199 mg/L

## VRC01 (antibody)
[13]
  EC50 (read off the curve): 0.03 mg/L
[1]
  EC50: 0.163 mg/L

## 19b Fab
[14]
  % of trimers occupied by one, two or three Fabs: 39%
[15]
  % 1 Fab bound: 30%
  % 2 Fabs bound: 8%
  % 3 Fabs bound: 1%
  % trimer alone: 61%
  particles, 1 Fab bound: 12500 particles
  particles, 2 Fabs bound: 3050 particles
  particles, 3 Fabs bound: 211 particles
  particles, trimer alone: 25100 particles

## F91 (antibody)
[1]
  EC50: > 10 mg/L

## VRC06 (antibody)
[1]
  EC50: 1.1 mg/L

## HJ16 (antibody)
[1]
  EC50: 4.38 mg/L

## PGT136 (antibody)
[1]
  EC50: 0.434 mg/L

## PGT127 (antibody)
[1]
  EC50: 0.066 mg/L

## PG9 Fab
[9]
  pKd: 7.52 to 7.70
[16]
  pKd: 7.52 to 7.70
[10]
  pKd: 7.52
[17]
  ΔG: -42.3 kJ/mol
  ΔH: -86.2 kJ/mol
[18]
  -TΔS: 72 kJ/mol
  pKd: 7.51
  N (stoichiometry of binding): 0.4
  ΔG: -42.7 kJ/mol
  ΔH: -115 kJ/mol
[19]
  gp140 protomers per PG9 Fab: 3
[20]
  -TΔS: 32.6 kJ/mol
  Kd: 11 nM and 0.55 µg/mL
  N (stoichiometry of binding): 0.8
  ΔG: -45.6 kJ/mol
  ΔH: -78.2 kJ/mol

## PGT128 Fab
[21]
  Kd2 (second, low affinity binding event): 20 µM
[4]
  -TΔS: 48.5 kJ/mol
  Kd: 5.7 nM and 0.285 µg/mL
  N (stoichiometry of binding): 2.3
  ΔG: -46.9 kJ/mol
  ΔH: -95.4 kJ/mol

## CD4-IgG2 (Fc fusion)
[1]
  EC50: 0.155 mg/L

## 3BNC60 (antibody)
[3]
  EC50 (read off the curve): 0.03 mg/L
[1]
  EC50: 0.095 mg/L

## CH31 (antibody)
[1]
  EC50: 0.347 mg/L

## 7B2 (antibody)
[1]
  EC50: > 10 mg/L

## PG9 (antibody)
[12]
  EC50 (read off the curve): 0.04 mg/L
[11]
  EC50 (read off the curve): 0.4 mg/L
[1]
  EC50: 0.343 mg/L

## b6 (antibody)
[22]
  plateau response (RU): 30 RU
[23]
  EC50 (read off the curve): 0.09 mg/L
[1]
  EC50: 0.871 mg/L

## VRC06b (antibody)
[3]
  EC50 (read off the curve): 0.4 mg/L
[1]
  EC50: 0.345 mg/L

## CH106 (antibody)
[1]
  EC50: 2.57 mg/L

## 1NC9 (antibody)
[1]
  EC50: 0.735 mg/L

## b12 (antibody)
[12]
  EC50 (read off the curve): 0.03 mg/L
[1]
  EC50: > 10 mg/L

## 12A12 (antibody)
[1]
  EC50: 0.08 mg/L

## CH01 (antibody)
[1]
  EC50: 2.78 mg/L

## 3BC176 (antibody)
[1]
  EC50: 5.65 mg/L

## 2G12 (antibody)
[21]
  Kd2 (second, low affinity binding event): 12.3 µM
[4]
  -TΔS: 119 kJ/mol
  Kd: 16 nM and 2.4 µg/mL
  N (stoichiometry of binding): 2.4
  ΔG: -44.4 kJ/mol
  ΔH: -163 kJ/mol
[24]
  EC50 (read off the curve): 0.02 mg/L
[23]
  EC50 (read off the curve): 0.01 mg/L
[1]
  EC50: 0.027 mg/L

## X5 (antibody)
[1]
  EC50: > 10 mg/L

## PGV04 Fab
[6]
  % of images with no Fabs bound: < 3%
  % of images with three Fabs bound: > 50%

## PGT135 Fab
[25]
  pKd: 7.09
[6]
  % of images with no Fabs bound: < 3%
  % of images with three Fabs bound: > 50%

## PGT123 (antibody)
[1]
  EC50: 0.127 mg/L

## PGT135 (antibody)
[1]
  EC50: 0.521 mg/L

## F240 (antibody)
[26]
  EC50 (read off the curve): 0.01 mg/L
[1]
  EC50: > 10 mg/L

## PGT128 (antibody)
[3]
  EC50 (read off the curve): 0.04 mg/L
[22]
  plateau response (RU): 750 RU
[24]
  EC50 (read off the curve): 0.04 mg/L
[23]
  EC50 (read off the curve): 0.04 mg/L
[1]
  EC50: 0.058 mg/L

## 8ANC195 (antibody)
[1]
  EC50: 2.06 mg/L
